Article PMC2597023 (Journal of cellular biochemistry, 2008)

Target: full-length human IGFN1 with an N-terminal c-myc tag (human, UniProt Q86VF2-2 1-868)
Test: co-IP

B1: endogenous eEF1A1 of mouse C2C12 myoblasts (natural protein, mouse (endogenous in C2C12), UniProt P10126 1-462, looked up)
chain: MGKEKTHINIVVIGHVDSGKSTTTGHLIYKCGGIDKRTIEKFEKEAAEMGKGSFKYAWVLDKLKAERERGITIDISLWKFETSKYYVTIIDAPGHRDFIKNMITGTSQADCAVLIVAAGVGEFEAGISKNGQTREHALLAYTLGVKQLIVGVNKMDSTEPPYSQKRYEEIVKEVSTYIKKIGYNPDTVAFVPISGWNGDNMLEPSANMPWFKGWKVTRKDGSASGTTLLEALDCILPPTRPTDKPLRLPLQDVYKIGGIGTVPVGRVETGVLKPGMVVTFAPVNVTTEVKSVEMHHEALSEALPGDNVGFNVKNVSVKDVRRGNVAGDSKNDPPMEAAGFTAQVIILNHPGQISAGYAPVLDCHTAHIACKFAELKEKIDRRSGKKLEDGPKFLKSGDAAIVDMVPGKPMCVESFSDYPPLGRFAVRDMRQTVAVGVIKAVDKKAAGAGKVTKSAQKAQKAK
fold of eEF1A1 immunoprecipitated against cells with the empty pCMV-myc vector: ~4 fold
